Several values for one entry are separate records, joined by “and”; a condition that tells them apart may be missing. Equal entries are not always repeated. Values belong to the binder of their own block, whether it stands above or below them.
What was measured:
[1] = target: T1, recombinant cynomolgus (cyno) complement C2 (XP_005553508.1), C-terminal 6His-tag, made in house (CHO cell … (cynomolgus monkey (Macaca fascicularis), UniProt P06681 21-752 (human entry))); assay: BLI (Gator), antibody on probe; 600 s association at pH 7.4, 600 s dissociation at pH 5.8
T1 construct: also called cyno C2; Cyno C2
T1 chain: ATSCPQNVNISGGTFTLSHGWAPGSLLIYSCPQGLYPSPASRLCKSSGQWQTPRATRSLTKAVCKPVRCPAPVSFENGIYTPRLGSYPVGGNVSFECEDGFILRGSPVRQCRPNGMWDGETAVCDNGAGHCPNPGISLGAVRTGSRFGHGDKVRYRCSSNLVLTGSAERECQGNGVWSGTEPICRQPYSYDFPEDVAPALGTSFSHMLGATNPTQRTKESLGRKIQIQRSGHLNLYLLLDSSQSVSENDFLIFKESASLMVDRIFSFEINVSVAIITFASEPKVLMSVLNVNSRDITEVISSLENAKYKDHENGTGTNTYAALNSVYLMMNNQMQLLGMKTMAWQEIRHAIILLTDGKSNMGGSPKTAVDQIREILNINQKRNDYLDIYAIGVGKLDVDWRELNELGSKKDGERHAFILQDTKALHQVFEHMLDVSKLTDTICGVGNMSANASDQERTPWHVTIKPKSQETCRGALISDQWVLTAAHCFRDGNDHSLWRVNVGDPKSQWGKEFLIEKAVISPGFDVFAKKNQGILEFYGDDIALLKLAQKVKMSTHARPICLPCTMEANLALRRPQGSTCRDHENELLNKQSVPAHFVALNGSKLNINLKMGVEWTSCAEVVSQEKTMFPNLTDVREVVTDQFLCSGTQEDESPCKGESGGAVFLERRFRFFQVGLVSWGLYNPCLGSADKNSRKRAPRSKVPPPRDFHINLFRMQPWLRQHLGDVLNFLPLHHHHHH
Method: (§1) The histidine mutant constructs in Table 4 were tested for their pH-dependent dissociation from human C2. Probe-immobilized anti-C2 antibodies were incubated with C2 at pH 7.4 for 600s, followed by a 600s dissociation period in K Buffer at pH 7.4 or pH 5.8. The data were processed and analyzed by the Gator evaluation software.
(§2) Non-fusion mAb were used for comparison.

[2] = target: T2, recombinant human complement C2 (NP_000054.2), C-terminal 6His-tag, made in house (CHO cell expression) (human, UniProt P06681 21-752); assay: as above
T2 construct: a linker before the tag is not described; also called human C2; Human C2
T2 sequence: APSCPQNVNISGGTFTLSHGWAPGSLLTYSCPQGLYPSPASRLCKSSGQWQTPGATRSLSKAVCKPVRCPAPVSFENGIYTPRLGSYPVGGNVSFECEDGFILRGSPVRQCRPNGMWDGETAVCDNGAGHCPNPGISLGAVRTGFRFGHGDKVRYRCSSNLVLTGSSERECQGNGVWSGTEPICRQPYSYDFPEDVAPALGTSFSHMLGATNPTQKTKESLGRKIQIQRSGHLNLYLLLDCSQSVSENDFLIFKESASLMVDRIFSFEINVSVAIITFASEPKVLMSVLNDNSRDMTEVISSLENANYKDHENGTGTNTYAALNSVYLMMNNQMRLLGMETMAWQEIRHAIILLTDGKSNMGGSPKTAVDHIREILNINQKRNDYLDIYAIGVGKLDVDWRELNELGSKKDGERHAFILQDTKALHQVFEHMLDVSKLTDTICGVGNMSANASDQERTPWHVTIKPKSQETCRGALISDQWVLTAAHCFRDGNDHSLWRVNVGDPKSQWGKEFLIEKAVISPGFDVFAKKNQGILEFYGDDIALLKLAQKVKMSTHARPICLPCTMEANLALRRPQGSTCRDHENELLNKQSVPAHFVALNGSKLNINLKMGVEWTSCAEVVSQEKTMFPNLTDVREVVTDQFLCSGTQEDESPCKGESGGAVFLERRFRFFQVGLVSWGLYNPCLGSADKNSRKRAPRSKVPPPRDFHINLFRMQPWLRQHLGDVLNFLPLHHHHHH
Method: as §1, §2

[3] = target: T2, recombinant human complement C2 …; assay: binding kinetics, neutral pH (BLI presumed)
[4] = target: T1, recombinant cynomolgus (cyno) …; assay: BLI (Gator), antibody on probe; 600 s association at pH 7.4, 600 s dissociation at pH 7.4
Method: as §1, §2

[5] = target: T2, recombinant human complement C2 …; assay: as above
Method: as §1, §2

[6] = target: T1, recombinant cynomolgus (cyno) …; assay: BLI (Gator); ratio of dissociation at pH 5.8 to pH 7.4
Method: as §1, §2

[7] = target: T2, recombinant human complement C2 …; assay: as above
Method: as §1, §2

[8] = target: T1, recombinant cynomolgus (cyno) …; assay: ELISA
[9] = target: T2, recombinant human complement C2 …; assay: ELISA
[10] = target: T1, recombinant cynomolgus (cyno) …; assay: binding kinetics (BLI presumed)

Dissociation (%) pH 5.8 [1]: 7.22% | Dissociation (%) pH 5.8 [2]: 2.45% | Kd [3]: 0.296 nM | koff [3]: 5.85e-05 s⁻¹ | kon [3]: 197000 M⁻¹ s⁻¹ | Dissociation (%) pH 7.4 [4]: 4.81% | Dissociation (%) pH 7.4 [5]: 3.15% | Fold dissociation pH 5.8/pH 7.4 [6]: 1.5 fold | Fold dissociation pH 5.8/pH 7.4 [7]: 0.78 fold | EC50 [8]: 0.0794 nM | EC50 [9]: 0.0474 nM | Kd [10]: 0.304 nM | koff [10]: 5.89e-05 s⁻¹ | kon [10]: 194000 M⁻¹ s⁻¹
B1: anti-C2 antibody 69.44 (antibody, IgG4, V domains shown)
VH: QVQLVQSGAEVKKPGASVKVSCKASGYSFTTYYMYWVRQAPGQGLEWMGIITPSGGSTTYAQKFQDRVTMTRDASTTTVYMELSSLRSEDTAVYYCARGYEGSYGFDHWGQGTLVTVSS
VL: SYELTQPPSVSLSPGQTASITCSGDKLGNKYTCWYQQKPGQSPVLVIYQDNKRPSGIPERFSGSNSGNTATLTISGTQAMDEADYYCQTWDSSTAVFGGGTKLTVL
notes: Recombinant

Dissociation (%) pH 5.8 [1]: 14.5% | Dissociation (%) pH 5.8 [2]: 10.4% | Kd [3]: 0.198 nM and 0.0984 nM | koff [3]: 6.12e-05 s⁻¹ and 3.73e-05 s⁻¹ | kon [3]: 308000 M⁻¹ s⁻¹ and 379000 M⁻¹ s⁻¹ | Dissociation (%) pH 7.4 [4]: 5.37% | Dissociation (%) pH 7.4 [5]: 5.27% | Fold dissociation pH 5.8/pH 7.4 [6]: 2.7 fold | Fold dissociation pH 5.8/pH 7.4 [7]: 1.97 fold | EC50 [8]: 0.0478 nM | EC50 [9]: 0.0504 nM | Kd [10]: 0.126 nM | koff [10]: 5.82e-05 s⁻¹ | kon [10]: 461000 M⁻¹ s⁻¹
B2: anti-C2 antibody 3.2 (antibody, IgG4, V domains shown)
VH: EVQLLESGGGLVQPGGSLRLSCAASGFTFRHYAMSWVRQAPGKGLEWVSLISGSGASTFYADSVKGRFTISRDNSENMLYLQMNSLRAEDTAVYYCAKDSLAVAGSEYFQHWGQGTLVTVSS
VL: SYVLTQAPSVSVAPGQTARITCGGNYFGGKSVHWYQQRPGQAPVLVVYDDSDRPSGIPERFSGSKSGNTATLAISRVEAGDEAAYYCQVYDTSSDHWVFGGGTKLTVL
notes: Recombinant; also called WT; "WT" 3.2
